Paper PMC11741606

Columns and labels:
[1] = molecular target: pig aminopeptidase N ectodomain fused with the Fc domain of human IgG (pig (Sus scrofa)) (UniProt P15145); assay: SPR; hFc-tagged APN from concentrated supernatant captured on a protein A sensor chip (>1000 RU); serially diluted RBD flowed over in PBST; BIAcore 8K, single-cycle mode; 1:1 Langmuir model; mean ± SD of three experiments
[2] = molecular target: chicken aminopeptidase N ectodomain fused with the Fc domain of human IgG (chicken (Gallus gallus)) (UniProt O57579); assay: as above
[3] = molecular target: dog aminopeptidase N ectodomain fused with the Fc domain of human IgG (dog (Canis lupus familiaris)) (UniProt P79143); assay: as above
[4] = molecular target: PDCoV RBD (receptor-binding domain of the porcine deltacoronavirus spike protein); assay: SPR

Sequence of pig aminopeptidase N ectodomain fused with the Fc domain of human IgG (pig (Sus scrofa)) (P15145 33-963): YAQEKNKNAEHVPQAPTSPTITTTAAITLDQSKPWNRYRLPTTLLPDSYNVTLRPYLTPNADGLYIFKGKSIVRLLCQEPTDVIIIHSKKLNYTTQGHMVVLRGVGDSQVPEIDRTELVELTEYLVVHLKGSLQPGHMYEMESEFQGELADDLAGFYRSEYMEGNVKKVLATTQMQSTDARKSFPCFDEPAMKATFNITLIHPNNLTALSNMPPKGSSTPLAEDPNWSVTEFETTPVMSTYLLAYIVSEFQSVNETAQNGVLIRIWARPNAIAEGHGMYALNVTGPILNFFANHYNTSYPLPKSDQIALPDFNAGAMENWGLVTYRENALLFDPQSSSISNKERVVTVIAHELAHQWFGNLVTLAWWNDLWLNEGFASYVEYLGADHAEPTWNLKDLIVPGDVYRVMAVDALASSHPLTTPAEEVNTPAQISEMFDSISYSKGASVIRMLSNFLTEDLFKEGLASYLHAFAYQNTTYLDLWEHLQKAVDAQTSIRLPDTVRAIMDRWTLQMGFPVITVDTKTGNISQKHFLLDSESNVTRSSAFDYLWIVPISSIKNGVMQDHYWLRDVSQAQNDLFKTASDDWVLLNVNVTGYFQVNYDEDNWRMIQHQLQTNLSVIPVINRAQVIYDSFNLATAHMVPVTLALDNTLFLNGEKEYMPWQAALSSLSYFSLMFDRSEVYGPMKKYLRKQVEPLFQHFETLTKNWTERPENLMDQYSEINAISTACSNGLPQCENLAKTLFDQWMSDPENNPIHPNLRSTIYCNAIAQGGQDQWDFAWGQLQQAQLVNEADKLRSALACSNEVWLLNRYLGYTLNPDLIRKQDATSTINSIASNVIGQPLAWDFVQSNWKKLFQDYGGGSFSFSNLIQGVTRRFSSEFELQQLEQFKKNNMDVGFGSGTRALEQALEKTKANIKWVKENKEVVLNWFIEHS
Sequence of chicken aminopeptidase N ectodomain fused with the Fc domain of human IgG (chicken (Gallus gallus)) (O57579 32-972): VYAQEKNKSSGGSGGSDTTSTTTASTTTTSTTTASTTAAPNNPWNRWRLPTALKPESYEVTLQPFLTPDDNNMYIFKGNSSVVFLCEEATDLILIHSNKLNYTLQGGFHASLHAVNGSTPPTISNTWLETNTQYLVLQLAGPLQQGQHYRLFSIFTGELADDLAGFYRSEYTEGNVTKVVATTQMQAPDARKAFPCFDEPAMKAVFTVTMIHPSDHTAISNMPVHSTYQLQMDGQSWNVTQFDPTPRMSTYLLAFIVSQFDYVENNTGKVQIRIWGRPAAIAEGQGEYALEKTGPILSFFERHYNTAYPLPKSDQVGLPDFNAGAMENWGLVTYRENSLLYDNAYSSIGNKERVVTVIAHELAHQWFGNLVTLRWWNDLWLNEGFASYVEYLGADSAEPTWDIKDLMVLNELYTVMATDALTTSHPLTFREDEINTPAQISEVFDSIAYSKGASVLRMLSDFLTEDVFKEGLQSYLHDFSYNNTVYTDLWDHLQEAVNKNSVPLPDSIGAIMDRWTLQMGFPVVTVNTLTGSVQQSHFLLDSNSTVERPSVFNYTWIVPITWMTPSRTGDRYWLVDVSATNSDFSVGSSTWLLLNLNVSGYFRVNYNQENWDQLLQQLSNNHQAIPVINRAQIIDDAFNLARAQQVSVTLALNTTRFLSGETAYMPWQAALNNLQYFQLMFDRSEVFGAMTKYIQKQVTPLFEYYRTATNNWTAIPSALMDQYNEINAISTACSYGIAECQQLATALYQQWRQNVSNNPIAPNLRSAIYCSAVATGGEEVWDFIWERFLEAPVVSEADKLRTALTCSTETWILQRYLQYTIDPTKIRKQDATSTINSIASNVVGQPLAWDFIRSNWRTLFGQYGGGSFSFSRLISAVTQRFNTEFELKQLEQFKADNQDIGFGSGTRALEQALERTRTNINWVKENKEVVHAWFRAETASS

Row | Substance | Kd [4] | also measured
1 | PDCoV RBD (receptor-binding domain of the porcine deltacoronavirus spike protein) (domain or fragment) | – | Kd [1]: 12800 nM; Kd [2]: 3030 nM; Kd [3]: 840 nM
2 | TGEV RBD (receptor-binding domain of the transmissible gastroenteritis coronavirus spike protein) (domain or fragment) | – | Kd [1]: 2770 nM; Kd [3]: 20 nM
3 | dog aminopeptidase N ectodomain fused with the Fc domain of human IgG (from UniProt P79143) D750E | 148 nM | –
4 | dog aminopeptidase N ectodomain fused with the Fc domain of human IgG (from UniProt P79143) E757D | 423 nM | –
5 | dog aminopeptidase N ectodomain fused with the Fc domain of human IgG (from UniProt P79143) H751R | 1450 nM | –
6 | dog aminopeptidase N ectodomain fused with the Fc domain of human IgG (from UniProt P79143) Q753E | 783 nM | –
7 | dog aminopeptidase N ectodomain fused with the Fc domain of human IgG (from UniProt P79143) R325N | 10500 nM | –
8 | dog aminopeptidase N ectodomain fused with the Fc domain of human IgG (from UniProt P79143) T754N | 4060 nM | –
9 | dog aminopeptidase N ectodomain fused with the Fc domain of human IgG (from UniProt P79143) Y375F | 350 nM | –
10 | dog aminopeptidase N ectodomain fused with the Fc domain of human IgG (from UniProt P79143) Y797H | 1220 nM | –
